Experimental data: publication PMC6494836, “Mechanism-based tuning of insect 3,4-dihydroxyphenylacetaldehyde synthase for synthetic bioproduction of benzylisoquinoline alkaloids” (Nature Communications, 2019)

What follows are substances tested on N[C@@H](Cc1ccc(O)c(O)c1)C(=O)O (assay: fluorometric H2O2 production assay (peroxidase-coupled)). Conditions: O2 co-substrate; PBS; PLP cofactor; aldehyde synthase (H2O2-producing) activity; parentheses are 95% confidence interval.
Type: biochemical, Bombyx mori
Excerpt: fluorometric H2O2 production assay (peroxidase-coupled) on B. mori DHPAAS

| Substance | Km | kcat |
| --- | --- | --- |
| B. mori DHPAAS (Bombyx mori) | 41.7 (36.6–47.3) µM | 6.51 (6.27–6.76) min^−1 |
| B. mori DHPAAS (Bombyx mori; F79Y/N192H/Y80F) | 27.6 (17.1–42.8) µM | 0.97 (0.87–1.09) min^−1 |
| B. mori DHPAAS (Bombyx mori; F79Y/Y80F) | 62.3 (49.5–78.5) µM | 4.65 (4.30–5.03) min^−1 |
| B. mori DHPAAS (Bombyx mori; N192H) | 36.5 (32.8–40.5) µM | 1.40 (1.35–1.44) min^−1 |
